# Test results as given in the supplement of paper PMC12764529.
# ± gives the half width of the 95% confidence interval.
# Assay: folding stability dG unfold (combined trypsin and chymotrypsin); higher = more stable
# How it was run: (§1)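 K50 was inferred by Bayesian fitting of sequencing counts obtained after protease digestion of designed mini-proteins. Unfolding free energy was derived by comparison with a sequence-predicted unfolded-state K50 and a shared folded-state K50, for each protease or both combined. The mini-proteins were under 80 residues, had no cysteine, were carried in a PA-tagged cDNA display construct, and were kept only if AlphaFold2 dimer inter-PAE exceeded 15.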
row,Sequence,folding stability dG unfold [kcal/mol]
1,SAGGSAGGRWYIMIEIRFPGNGRQFSFMIPIPPGDEVDIKLDELAEWFGFPNVKVDIQVMPLEKSAGGSAGG [r6_722_TrROS],4.45 ± 0.18
2,SAGGSKIPLDNIKVITIMYNPKEGMYWISIRFPNNGKEVVFPYEDAPKILEKFPEIKEIEVYPFPPSAGGSA [r2_159_TrROS],2.59 ± 0.084
3,SKETETVEMEITITVNGKKVKIKATFTRNKDGSITMTITYEDGKKIEITFTNGKIVIVDKKTKKIIAEIPSA [r9_970_TrROS_Hall],4.14 ± 0.25
4,SAGGSAGGSMKVVKILSIETKAEKDEEVLTIPVLDPANGKVITLTVSPEVAKTITTDDEIELLSAGGSAGGS [r12_382_JUSTAS],0.47 ± 0.14
5,SAWYIIKIEIYNPGQNEPIASHTFMVPEEDLDAFKEKIADQFGMNPGWQIKVEIQPIPPVRDKDGEWKWSAG [r14_297_TrROS],1.91 ± 0.086
6,SMPPDEKLIFVTRFKVKPDNPEDIEKALAAARETVRALLEELGLPEVKEVRVLRVEVHPDGYVTVVVEVGSA [r9_754_TrMRF],4.49 ± 0.08
7,SAGGSAGGSAMLTKITITFEKPGTDETFTKPIDVPPDNPEEAIKAIKEELKKKGYKVKSVILSAGGSAGGSA [r18_3_JUSTAS],1.57 ± 0.15
8,SAGGSAGGSKPTLTLEIVLPPEMTLEQLEELARALAEELGLDEVEVRVERRPDGYLRITITVKSAGGSAGGS [r20_208_TrROS_Hall],3.59 ± 0.12
9,SAGGSAGGSAGPVVISIPETNTLVVLAPLPDDRVLADVFQFDPTTPEPTVFTVPAENISFSAGGSAGGSAGG [r11_285_TrMRF],0.565 ± 0.099
10,SAGGSAGGSAGPGVLILRRRFVRPRLIPNTGKLYYEEVELTTNLPIGPIPPNWLNNPNGVSAGGSAGGSAGG [r17_493_TrMRF],0.0971 ± 0.14
11,SAGGGSSSLPAVPVSVETFTFPYKTEEEAKAAAEELAKKLEAEDGKPVKVEVSFDPATGTATVTITVVSAGG [r13_517_JUSTAS],3.815 ± 0.035
12,SAGGSAGGFIEYDPKTGTITVTFPSSVSPEDVRAAIEAAGFPATPVAYSYDPSPPVRTVTFKVASAGGSAGG [r6_396_JUSTAS],1.06 ± 0.092
13,SAGGSAGGSAGKYYIIKYPGKVEIIPESEVEKIIEANPNVEIEEFESKEEALKALEKALSSAGGSAGGSAGG [r11_60_TrMRF],4.22 ± 0.09
14,SAGGMPEVKYLEITITVEVPTEEEALEKLKEELKKLFPNAEIVSVEVEVEEEDGKLTVTVKITVKLPSAGGS [r8_120_TrROS_Hall],3.35 ± 0.16
15,SAGGSAGGSKKKVKVEIVEYDPETKKVTVRVTVDGKEYEFTFSTPEELEAAAKAGKIDEITLTSAGGSAGGS [r12_421_TrROS_Hall],2.26 ± 0.066
16,SAGGLLEELGLEIEEVEVEVEEVEVGQTVRIRVKVKGEDGEEFEIELEIRLPPPPVEVEEEVEEEEESAGGS [r8_216_TrROS_Hall],1.82 ± 0.14
17,MMYLIRVTVYDEETEEEVEEIEILIELSEEELKNMSEEEREKLLEEALKKAEELAKEYPNLKIEVEIVELPS [r1_115_TrROS_Hall],3.83 ± 0.14
18,SAGGSAGGSSGKYTITVTRKNPDGTPLGVFPIEVEGESEEEAKALAEELKNQPDVVEVKVTYVDSAGGSAGG [r6_475_JUSTAS],1.22 ± 0.048
19,SAGGMRIELVRTYIEEPDENGKLKGSGYREVLVLRPPPPVIRVPPELLEEAEELRKKLDGPVEPEELGSAGG [r19_315_JUSTAS],3.84 ± 0.42
20,SAGGSAGGKIPPNMEIEPWRFGGKPYFLIRMPNGSYQVFEFKGDKLKIKETIPVPPGDWILIKFSAGGSAGG [r6_476_TrROS],1.81 ± 0.14
21,SMKPGETVTLEVVIRVKKENMTLEEIAEEVANAIKALLPPGAKITIEVVDIEYDEETDEVYVKLKITIENSA [r9_706_TrROS_Hall],3.01 ± 0.32

row,Sequence,folding stability dG unfold [kcal/mol]
1,SAGGPWRFEIDDIQPPEDGKVQIRIKLYNDDGEPIQELSIPMKGVDDVKITIPIGNQPIKIPITVVPASAGG [r13_427_TrROS],0.361 ± 0.19
2,SAGNPSLVKETIIPFTLPDGSEVKLTVKTDPSTGKVTMPIETKDEKVKAKAIELAKKIAEELGFPEVGLSAG [r5_99_JUSTAS],0.261 ± 0.079
3,SAGGMKVTRLPNALVFEYPLPNSTLRIVVTPGDGTYTLELYRDGKLIATFPSPGPVADLVEAAIKALSAGGS [r8_276_TrMRF],3.01 ± 0.073
4,SAGGSAMPGMTLQELLDAIRALLPPGARARIYVRNPDGEVIELTDLDDITVEDLENAEIRIEIEPVSAGGSA [r15_144_TrROS_Hall],3.88 ± 0.076
5,SAGGGKKTKYVLLTFNPKEVKAEDLEKEILKKGAEIYIGDKPIDPGKGVKEVMKANPNTTFLVKIYDSAGGS [r8_38_TrMRF],1.12 ± 0.32
6,MEEIKNLPGVKYEPIIEDGEIRLVRFEIPKEVFEKFGKPPVILLVEFSKDGKYRILPESIPKLLELGIIPGS [r1_256_TrMRF],2.27 ± 0.052
7,SAGMKIRILILGKGDPAQVEALAKELEAKLKEELGTEDVEVETLPASLTEEAAEERAKEEKVDIVVYESAGG [r19_89_JUSTAS],0.99 ± 0.09
8,SAGKFKITNISPMEERKPEDDKWEEQPYIMIRMRWKDPQKALDEIKEEFGYPVNIQRDPDDGWATIMIPSAG [r5_907_TrROS],0.248 ± 0.11
9,SAGGSAGGSPVLVRVYARDEDGNETPVAEIALPVENDNPEEAAKKAREIAKKLGVKEYRVEIESAGGSAGGS [r12_569_TrMRF],1.48 ± 0.04
10,SAGERKVLVIENLTSEELIEAIREALEKSPPGLLILVPDPEKAEEIRRAFPGIPLVVLNRETGELVEVESAG [r5_391_TrMRF],3.33 ± 0.099
11,SAGGSAGGSSYLVEVISRKKVKVGGKERYVVPVRIPDNGELVELVVSEDVAKNIKPGDVVVLSSAGGSAGGS [r12_382_TrMRF],0.0239 ± 0.12
12,SAGGSAGGSAKTITITFLFDSPENAKDFVREIAQEDGMKIKVEWERDPEGWWWVTATIEVPSAGGSAGGSAG [r3_273_TrROS],3.14 ± 0.15
13,SMTPEEARALAEAIAAERAAAGYATEMELTVTPVNGVPVATFRFRFTDAAGRATEFTVTVAPDGTVTFTPSA [r9_1027_JUSTAS],3.64 ± 0.08
14,SAGGPGRMREREFEIEFPFEPGQSIEDALRELIGLPPGIQIEDIKVEVDPEDGWVKISVTITVYDPNDSAGG [r13_828_TrROS],1.29 ± 0.15
15,SAMITVEIVDPLPDIANLSEEEAKALAEELAEEYAKKKFPNENVKITKVEVELEPETPEIRVTVTLELKSAG [r14_310_JUSTAS],2.37 ± 0.15
16,SDNFQPDMTFPVTEIGDDKVTMKYNGKPYYIPTSKITSPNVTVKITDGTVSEVSSPSPSPLPPENIKKLSSA [r9_842_JUSTAS],-0.263 ± 0.42
17,SAMKIKPGEKVKIKIEVKNKKTKKKKTIEIEVPVDEETGEVFTEDELKKLLEKLGIEVEEVKIVEIEKESAG [r14_93_TrROS_Hall],0.76 ± 0.21
18,SAGGSAGGSAGKIVIVVDEDGNYTLKVNGKTYVFKTPEEAKAAAEELKKAGIEIEIVEVPSAGGSAGGSAGG [r17_35_TrROS_Hall],4.85 ± 0.17
19,SAGGSAGGSAGKIPEIIKKTNAVEKDGKIFLGIKTDGKYYLIELEKKTLKIKKIEPFPDKSAGGSAGGSAGG [r11_808_TrMRF],0.488 ± 0.085
20,SMTIEIEVDGKTVTVEIDPKTGKIKKVVVKDKETGEWKELSDEEIEKLLKELEDELREKREKLEKEGKEPSA [r9_368_TrROS_Hall],2.53 ± 0.25
21,SAGGSAGGSSQEREFTLPDPDGKDIKITMHQNPDGRPRAEIENKDGEPVKEFDSPDDIEDLLKSAGGSAGGS [r20_202_TrROS],-0.0562 ± 0.22

# Assay: folding stability dG unfold from trypsin proteolysis; higher = more stable
# How it was run: as §1
row,Sequence,folding stability dG unfold [kcal/mol]
1,SAGGSAGGRWYIMIEIRFPGNGRQFSFMIPIPPGDEVDIKLDELAEWFGFPNVKVDIQVMPLEKSAGGSAGG [r6_722_TrROS],3.41 ± 0.3
2,SAGGSKIPLDNIKVITIMYNPKEGMYWISIRFPNNGKEVVFPYEDAPKILEKFPEIKEIEVYPFPPSAGGSA [r2_159_TrROS],2.25 ± 0.11
3,SKETETVEMEITITVNGKKVKIKATFTRNKDGSITMTITYEDGKKIEITFTNGKIVIVDKKTKKIIAEIPSA [r9_970_TrROS_Hall],2.54 ± 0.19
4,SAGGSAGGSMKVVKILSIETKAEKDEEVLTIPVLDPANGKVITLTVSPEVAKTITTDDEIELLSAGGSAGGS [r12_382_JUSTAS],0.177 ± 0.14
5,SAWYIIKIEIYNPGQNEPIASHTFMVPEEDLDAFKEKIADQFGMNPGWQIKVEIQPIPPVRDKDGEWKWSAG [r14_297_TrROS],1.54 ± 0.036
6,SMPPDEKLIFVTRFKVKPDNPEDIEKALAAARETVRALLEELGLPEVKEVRVLRVEVHPDGYVTVVVEVGSA [r9_754_TrMRF],4.05 ± 0.11
7,SAGGSAGGSAMLTKITITFEKPGTDETFTKPIDVPPDNPEEAIKAIKEELKKKGYKVKSVILSAGGSAGGSA [r18_3_JUSTAS],1.28 ± 0.078
8,SAGGSAGGSKPTLTLEIVLPPEMTLEQLEELARALAEELGLDEVEVRVERRPDGYLRITITVKSAGGSAGGS [r20_208_TrROS_Hall],3.63 ± 0.18
9,SAGGSAGGSAGPVVISIPETNTLVVLAPLPDDRVLADVFQFDPTTPEPTVFTVPAENISFSAGGSAGGSAGG [r11_285_TrMRF],0.76 ± 0.024
10,SAGGSAGGSAGPGVLILRRRFVRPRLIPNTGKLYYEEVELTTNLPIGPIPPNWLNNPNGVSAGGSAGGSAGG [r17_493_TrMRF],-0.0517 ± 0.15
11,SAGGGSSSLPAVPVSVETFTFPYKTEEEAKAAAEELAKKLEAEDGKPVKVEVSFDPATGTATVTITVVSAGG [r13_517_JUSTAS],4.2 ± 0.16
12,SAGGSAGGFIEYDPKTGTITVTFPSSVSPEDVRAAIEAAGFPATPVAYSYDPSPPVRTVTFKVASAGGSAGG [r6_396_JUSTAS],1.14 ± 0.02
13,SAGGSAGGSAGKYYIIKYPGKVEIIPESEVEKIIEANPNVEIEEFESKEEALKALEKALSSAGGSAGGSAGG [r11_60_TrMRF],3.95 ± 0.21
14,SAGGMPEVKYLEITITVEVPTEEEALEKLKEELKKLFPNAEIVSVEVEVEEEDGKLTVTVKITVKLPSAGGS [r8_120_TrROS_Hall],3.66 ± 0.22
15,SAGGSAGGSKKKVKVEIVEYDPETKKVTVRVTVDGKEYEFTFSTPEELEAAAKAGKIDEITLTSAGGSAGGS [r12_421_TrROS_Hall],2.26 ± 0.059
16,SAGGLLEELGLEIEEVEVEVEEVEVGQTVRIRVKVKGEDGEEFEIELEIRLPPPPVEVEEEVEEEEESAGGS [r8_216_TrROS_Hall],1.91 ± 0.2
17,MMYLIRVTVYDEETEEEVEEIEILIELSEEELKNMSEEEREKLLEEALKKAEELAKEYPNLKIEVEIVELPS [r1_115_TrROS_Hall],3.52 ± 0.13
18,SAGGSAGGSSGKYTITVTRKNPDGTPLGVFPIEVEGESEEEAKALAEELKNQPDVVEVKVTYVDSAGGSAGG [r6_475_JUSTAS],1.37 ± 0.027
19,SAGGMRIELVRTYIEEPDENGKLKGSGYREVLVLRPPPPVIRVPPELLEEAEELRKKLDGPVEPEELGSAGG [r19_315_JUSTAS],3.63 ± 0.38
20,SAGGSAGGKIPPNMEIEPWRFGGKPYFLIRMPNGSYQVFEFKGDKLKIKETIPVPPGDWILIKFSAGGSAGG [r6_476_TrROS],1.48 ± 0.04
21,SMKPGETVTLEVVIRVKKENMTLEEIAEEVANAIKALLPPGAKITIEVVDIEYDEETDEVYVKLKITIENSA [r9_706_TrROS_Hall],4.17 ± 0.28
